To fix the notation:
B1: scFv; the commonest letter at each place (parent)
chain 1: EVKLDETGGGLVQPGRPMKLSCVASGFTFSDYWMNWVRQSPEKGLEWVAQIRNKPYNYETYYSDSVKGRFTISRDDSKSSVYLQMNNLRVEDMGIYYCTGSYYGMDYWGQGTSVTVS
chain 2: DVVMTQTPLSLPVSLGDQASISCRSSQSLVHSNGNTYLRWYLQKPGQSPKVLIYKVSNRFSGVPDRFSGSGSGTDFTLKISRVEAEDLGVYFCSQSTHVPWTFGGGTKLEIK

In the data set “fluorescein” the parent is B1. Put plainly: Kd (Tite-Seq). As to conditions: with fluorescein; format: scFv 4-4-20, heavy + light.
Data set [1] covers variants of B1. Nature of the data set: yeast surface expression (ratio to wild type); higher = more expressed. As to conditions: format: scFv 4-4-20, heavy + light.

The values below come from the FLAb antibody collection (doi:10.7554/elife.23156).

In general, Kd refers to the free concentration of one partner at which half of the binding sites on the other are occupied at equilibrium, for simple one-to-one binding.

For chain 1 D31S W36S, in the data set with fluorescein, the Kd was ≥ 10 µM. The yeast surface expression in data set [1] is 2.03.
As to chain 1 D31S W36P, the Kd in the data set with fluorescein is ≥ 10 µM. Moreover, the yeast surface expression in data set [1] stood at 3.88.
With chain 1 Y107D W108C, in the data set with fluorescein, the Kd was ≥ 10 µM. Further, in data set [1], the yeast surface expression is 0.269.
The matching figures for chain 1 G100N Y107K: ≥ 10 µM and 0.6.
In the same order, the values of chain 1 W33S W36L are ≥ 10 µM and 0.535.
In the same order, the values of chain 1 S101Q G104P are ≥ 10 µM and 0.539.
For chain 1 Y102Q G104L, the Kd with fluorescein is ≥ 10 µM. In data set [1], the yeast surface expression worked out at 0.667.
The matching figures for chain 1 M34I: 0.00273 µM and 0.873.
In the same order, the values of chain 1 M34D are ≥ 10 µM and 0.406.
For chain 1 M34S, in the data set with fluorescein, the dissociation constant (Kd) stood at 0.151 µM. Further, the yeast surface expression in data set [1] turned out to be 0.652.
The matching figures for chain 1 M34T N35D: ≥ 10 µM and 0.415.
In the same order, the values of chain 1 S30E W33Q are ≥ 10 µM and 0.96.
In the same order, the values of chain 1 W36K V37N are 0.0592 µM and 0.168.
Take chain 1 M34H N35I: in the data set with fluorescein, the dissociation constant (Kd) is ≥ 10 µM. Moreover, in data set [1], the yeast surface expression was 0.552.
For chain 1 M105S G109C, in the data set with fluorescein, the dissociation constant (Kd) was ≥ 10 µM. Besides, the yeast surface expression in data set [1] was determined as 0.182.
The matching figures for chain 1 Y103D G109D: ≥ 10 µM and 0.542.
In the same order, the values of chain 1 T28K V37R are 0.195 µM and 2.19.
chain 1 G100Q D106P: the dissociation constant (Kd) with fluorescein is ≥ 10 µM. Moreover, in data set [1], the yeast surface expression is 0.222.
In the same order, the values of chain 1 F29L W33D W36S are ≥ 10 µM and 0.585.
The matching figures for chain 1 Y107E: 1.72 µM and 0.803.
The matching figures for chain 1 Y107A: 7.33 µM and 1.
Consider chain 1 D31V Y32P, for which, in the data set with fluorescein, the Kd is ≥ 10 µM. Further, in data set [1], the yeast surface expression came out at 0.759.
In the same order, the values of chain 1 T28E S30W Y32D are ≥ 10 µM and 0.574.
The matching figures for chain 1 G104I Y107N: ≥ 10 µM and 0.247.
In the same order, the values of chain 1 D31R M34S are ≥ 10 µM and 0.507.
As for chain 1 G100L, the Kd with fluorescein is ≥ 10 µM. Also, the yeast surface expression in data set [1] came to 0.747.
The matching figures for chain 1 G100C W108T: 0.000846 µM and 0.565.
The matching figures for chain 1 M105P W108S: ≥ 10 µM and 0.621.
In the same order, the values of chain 1 Y102H Y107F G109K are ≥ 10 µM and 0.242.
Consider chain 1 Y103T W108P, for which the Kd in the data set with fluorescein is ≥ 10 µM. Further, the yeast surface expression in data set [1] stood at 0.468.
For chain 1 G100I Y102M, the dissociation constant Kd in the data set with fluorescein is ≥ 10 µM. Also, the yeast surface expression in data set [1] was determined as 1.08.
For the variant chain 1 Y102S Y103S, the Kd with fluorescein was 0.021 µM. The yeast surface expression in data set [1] is 1.1.
In the same order, the values of chain 1 Y102F G109H are ≥ 10 µM and 0.186.
In the same order, the values of chain 1 Y103Q D106M are ≥ 10 µM and 0.805.
The matching figures for chain 1 M105D D106T: ≥ 10 µM and 0.588.
chain 1 W33T N35D V37W: in the data set with fluorescein, the Kd is ≥ 10 µM. In data set [1], the yeast surface expression came out at 0.582.
In the same order, the values of chain 1 Y103V W108Y are 0.0011 µM and 0.619.
In the same order, the values of chain 1 Y102K Y107K are 6.96 µM and 0.846.
The matching figures for chain 1 D31R W36N: ≥ 10 µM and 1.06.
On to chain 1 N35C, for which the Kd in the data set with fluorescein was ≥ 10 µM. The yeast surface expression in data set [1] is 0.708.
In the case of chain 1 N35K, the Kd with fluorescein is 0.228 µM. For the same variant, the yeast surface expression in data set [1] amounted to 0.806.
In the same order, the values of chain 1 G109C are ≥ 10 µM and 0.39.
In the same order, the values of chain 1 W108I G109F are 0.02 µM and 0.186.
In the same order, the values of chain 1 Y103H G109M are ≥ 10 µM and 0.304.
With chain 1 S101Y G109K, in the data set with fluorescein, the dissociation constant Kd is ≥ 10 µM. In data set [1], the yeast surface expression turned out to be 0.212.
In the same order, the values of chain 1 G104Q G109M are ≥ 10 µM and 0.0981.
Consider chain 1 S101Y Y107P, for which, in the data set with fluorescein, the Kd is ≥ 10 µM. Moreover, in data set [1], the yeast surface expression turned out to be 0.489.
Turning to chain 1 G100R W108N, the Kd with fluorescein is ≥ 10 µM. The yeast surface expression in data set [1] stood at 0.348.
In the same order, the values of chain 1 F29S N35Y are 0.327 µM and 1.05.
Turning to chain 1 Y103I M105E, the equilibrium dissociation constant (Kd) with fluorescein was ≥ 10 µM. Besides, the yeast surface expression in data set [1] came out at 0.733.
In the same order, the values of chain 1 G104I W108D are ≥ 10 µM and 0.236.
In the same order, the values of chain 1 G104I W108H are ≥ 10 µM and 0.102.
In the same order, the values of chain 1 N35E V37Q are ≥ 10 µM and 0.427.
As to chain 1 M105W W108K, the Kd with fluorescein came out at 2.88 µM. Moreover, the yeast surface expression in data set [1] is 0.363.
The matching figures for chain 1 S101P G104T M105Y: ≥ 10 µM and 0.208.
Take chain 1 W33S N35I: the Kd with fluorescein is ≥ 10 µM. In data set [1], the yeast surface expression is 0.495.
The matching figures for chain 1 S30H Y32T: ≥ 10 µM and 0.891.
